Source: publication PMC10397247

T1: 4H3070-bH
T1 chain: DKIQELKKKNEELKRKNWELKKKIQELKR

T2: 4H342-bH
T2 chain: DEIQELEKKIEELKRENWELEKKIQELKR

T3: 4H3632-bH
T3 chain: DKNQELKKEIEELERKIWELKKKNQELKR

T4: 4H496-bH
T4 chain: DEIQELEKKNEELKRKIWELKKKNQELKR

T5: P8mSN
T5 chain: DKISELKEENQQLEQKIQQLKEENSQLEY

T6: P6mSN
T6 chain: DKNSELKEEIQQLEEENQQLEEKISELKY

T7: P9mSN
T7 chain: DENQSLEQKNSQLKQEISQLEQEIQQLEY

T8: P4bH1
T8 chain: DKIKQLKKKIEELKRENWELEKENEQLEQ

T9: P3mSN
T9 chain: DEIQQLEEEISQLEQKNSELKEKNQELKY

T10: P2mSN
T10 chain: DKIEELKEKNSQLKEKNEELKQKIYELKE

T11: P7mSN
T11 chain: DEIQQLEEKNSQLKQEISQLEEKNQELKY

T12: P4mSN
T12 chain: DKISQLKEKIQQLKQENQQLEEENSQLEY

T13: P5mSN
T13 chain: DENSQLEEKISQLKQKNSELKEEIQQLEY

T14: P1mSN
T14 chain: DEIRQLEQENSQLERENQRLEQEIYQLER


What was measured:
Test in all cases: two-hybrid library CCNG1;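 note: natural log of median RNA to DNA barcode read ratio; higher means stronger binding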
[1] = target: T1, 4H3070-bH; conditions: mean of both orientations
[2] = target: T2, 4H342-bH
[3] = target: T3, 4H3632-bH
[4] = target: T4, 4H496-bH
[5] = target: T5, P8mSN
[6] = target: T6, P6mSN
[7] = target: T7, P9mSN
[8] = target: T8, P4bH1
[9] = target: T9, P3mSN
[10] = target: T10, P2mSN
[11] = target: T11, P7mSN
[12] = target: T12, P4mSN
[13] = target: T13, P5mSN
[14] = target: T14, P1mSN

| interaction score [1] | interaction score [2] | interaction score [3] | interaction score [4] | interaction score [5] | interaction score [6] | interaction score [7] | interaction score [8] | interaction score [9] | interaction score [10] | interaction score [11] | interaction score [12] | interaction score [13] | interaction score [14] | Binder |
| --- | --- | --- | --- | --- | --- | --- | --- | --- | --- | --- | --- | --- | --- | --- |
| 0.665 | 1.49 | -0.214 | -0.307 |  |  |  |  |  |  |  |  |  |  | DKIQELKKKNEELKRKNWELKKKIQELKR [4H3070-bH] |
|  |  |  |  | -1.26 | -0.752 | -1.13 | -1.37 | -0.831 | -1.97 | -0.243 | -0.0295 | -0.724 |  | DKIEELKEKNSQLKEKNEELKQKIYELKE [P2mSN] |
|  |  |  |  | -1.17 | -0.582 | -2.07 |  | -1.95 | 1.73 | -1.01 | -1.09 | -1.04 | -1.23 | DEIRQLEQENSQLERENQRLEQEIYQLER [P1mSN] |
